± gives the standard deviation of the averaged measurements.
B1: library; a variant is named by its letters at N, in order (parent)
chain: GCUGUCACCGGUGCUUGGUACGUUAUAUUCAGCCGGUCUGAUGAGUCUNNNNNNAGACGAAACAGC

Columns and labels:
(6R,S)-folinic acid [1] = variants of: B1; experiment: normalized RNA/DNA level without ligand (relative to sTRSVctl = 100) (log10 (% of sTRSVctl)); HEK293T overexpressing SLC46A1; higher = less ribozyme self-cleavage, higher mRNA level; conditions: without (6R,S)-folinic acid; ligand present: no
How it was run: (§1)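 Total RNA, extracted with EDTA 72 h after HEK293T cells were transfected with 4 µg per 6-well well of reporter-linked ribozyme switch library plasmids, was reverse-transcribed, amplified, barcoded and sequenced. Ligand, if used, was added 1 h before transfection. RNA level was derived from RNA reads divided by DNA reads and normalized to a spiked-in non-cleaving sequence or to the top sequences. This was multiplied by 100 and log10-transformed, with the top set of 25 sequences and a ≥100 DNA read minimum.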

(6R,S)-folinic acid [2] = variants of: B1; experiment: normalized RNA/DNA level with ligand (relative to sTRSVctl = 100) (log10 (% of sTRSVctl)); HEK293T overexpressing SLC46A1; ligand concentration (+) RNA-Seq: 6 mM; higher = less ribozyme self-cleavage, higher mRNA level; conditions: with (6R,S)-folinic acid; ligand present: yes
How it was run: as §1

Variant | normalized RNA/DNA level without ligand (log10) ((6R,S)-folinic acid [1]) | normalized RNA/DNA level with ligand (log10) ((6R,S)-folinic acid [2])
GCUGUCACCGGUGCUUGGUACGUUAUAUUCAGCCGGUCUGAUGAGUCUGGUUACAGACGAAACAGC | 1.999 ± 0.0035 | 2 ± 0.038
GCUGUCACCGGUGCUUGGUACGUUAUAUUCAGCCGGUCUGAUGAGUCUUGUUUAAGACGAAACAGC | 1.978 ± 0.0041 | 2.055 ± 0.0056
GCUGUCACCGGUGCUUGGUACGUUAUAUUCAGCCGGUCUGAUGAGUCUUGUUUCAGACGAAACAGC | 2.063 ± 0.0072 | 2.04 ± 0.027
GCUGUCACCGGUGCUUGGUACGUUAUAUUCAGCCGGUCUGAUGAGUCUCGUUCGAGACGAAACAGC | 2.0527 ± 1.7e-05 | 2.04 ± 0.047
GCUGUCACCGGUGCUUGGUACGUUAUAUUCAGCCGGUCUGAUGAGUCUCGUUCCAGACGAAACAGC | 2.07 ± 0.026 | 2.028 ± 0.017
GCUGUCACCGGUGCUUGGUACGUUAUAUUCAGCCGGUCUGAUGAGUCUCGUUCUAGACGAAACAGC | 2.07 ± 0.034 | 2.03 ± 0.034
GCUGUCACCGGUGCUUGGUACGUUAUAUUCAGCCGGUCUGAUGAGUCUCGUUCAAGACGAAACAGC | 2.024 ± 0.004 | 2.044 ± 0.017
GCUGUCACCGGUGCUUGGUACGUUAUAUUCAGCCGGUCUGAUGAGUCUAGUUAUAGACGAAACAGC | 1.979 ± 0.0072 | 2.02 ± 0.018
GCUGUCACCGGUGCUUGGUACGUUAUAUUCAGCCGGUCUGAUGAGUCUAGUUAGAGACGAAACAGC | 1.908 ± 0.017 | 2 ± 0.038
GCUGUCACCGGUGCUUGGUACGUUAUAUUCAGCCGGUCUGAUGAGUCUAGUUACAGACGAAACAGC | 2.007 ± 0.0061 | 1.992 ± 0.013
GCUGUCACCGGUGCUUGGUACGUUAUAUUCAGCCGGUCUGAUGAGUCUAGUUCCAGACGAAACAGC | 2.06 ± 0.047 | 2.04 ± 0.059
GCUGUCACCGGUGCUUGGUACGUUAUAUUCAGCCGGUCUGAUGAGUCUAGUUCGAGACGAAACAGC | 1.953 ± 0.015 | 2 ± 0.025
GCUGUCACCGGUGCUUGGUACGUUAUAUUCAGCCGGUCUGAUGAGUCUAGUUCUAGACGAAACAGC | 2.02 ± 0.025 | 2.014 ± 0.011
GCUGUCACCGGUGCUUGGUACGUUAUAUUCAGCCGGUCUGAUGAGUCUUGUUGCAGACGAAACAGC | 1.98 ± 0.024 | 2.059 ± 0.0084
GCUGUCACCGGUGCUUGGUACGUUAUAUUCAGCCGGUCUGAUGAGUCUUGUUGUAGACGAAACAGC | 1.9049 ± 9.7e-05 | 2 ± 0.027
GCUGUCACCGGUGCUUGGUACGUUAUAUUCAGCCGGUCUGAUGAGUCUAGUUUCAGACGAAACAGC | 2.02 ± 0.024 | 2 ± 0.025
GCUGUCACCGGUGCUUGGUACGUUAUAUUCAGCCGGUCUGAUGAGUCUAGUUUAAGACGAAACAGC | 1.9996 ± 0.00042 | 2.03 ± 0.037
GCUGUCACCGGUGCUUGGUACGUUAUAUUCAGCCGGUCUGAUGAGUCUAGUUUGAGACGAAACAGC | 1.958 ± 0.0094 | 2.023 ± 0.017
GCUGUCACCGGUGCUUGGUACGUUAUAUUCAGCCGGUCUGAUGAGUCUCGUUGUAGACGAAACAGC | 2.004 ± 0.0073 | 2 ± 0.047
GCUGUCACCGGUGCUUGGUACGUUAUAUUCAGCCGGUCUGAUGAGUCUCGUUGGAGACGAAACAGC | 1.931 ± 0.019 | 2.0206 ± 0.0013
